Data taken from patent publication US20230132667.
pKd: −log10 of the molar value. Read-outs that look alike come from different tables or passages of the source.

Columns and labels:
[1] = target: T1, P-TEFb/AFF4/Tat(1-57) core super elongation complex (CDK9/CycT1/AFF4/Tat) (Homo sapiens (CDK9, CycT1, AFF4)?; HIV-1 (Tat)) (UniProt P50750+O60563+Q9UHB7+P04608); conditions: CITED mutational data (apparently), cited from earlier work
[2] = target: T1, P-TEFb/AFF4/Tat(1-57) core super elongation complex (CDK9/CycT1/AFF4/Tat) (Homo sapiens (CDK9, CycT1, AFF4)?; HIV-1 (Tat)); experiment: EMSA; conditions: 250x yeast tRNA

Sequence | pKd ([1]; wild-type UGGG loop) | pKd ([2]; 0.5 nM RNA, 0-90 nM complex, 6% native gel) | pKd ([2]; TAR preincubated with 10 nM Palbociclib) | pKd ([1]; [15-18], CAAA loop)
GGCAGAUCUGAGCCUGGGAGCUCUCUGCC [HIV-1 TAR] | 9.64 | 9.47 | 7.45 | 
GGCAGAUCUGAGCCCAAAAGCUCUCUGCC [HIV-1 TAR loop mutant UGGG to CAAA] |  |  |  | < 8.00
